Laboratory results taken from the nanobody polyreactivity screen of Harvey et al. (2022).

Assay: yeast display, Sf9 membrane polyspecificity reagent, FACS + sequencing; frameworks hold sequencing errors
How it was run: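 After 36–48 hours of galactose induction, yeast (Saccharomyces cerevisiae BJ5465) displaying a synthetic nanobody library were stained at 4 °C for 1 hour with 10% biotinylated, detergent-solubilized Sf9 membrane reagent. Streptavidin microbeads enriched the stained cells before FACS sorting into low and high (top ~1%) gates on anti-HA and streptavidin fluorescence. Each clone's polyreactivity label reflects its gate of origin.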

| Sequence | polyreactivity (PSR sort gate) |
| --- | --- |
| QVQLVESGGGLVQAGGSLRLSCAASGRTFDRYAMGWYRQAPGKERELVAAISSGTSTNYADSVKGRFTISRDNAKNTVSLQMNSLKPEDTAVYYCNVDSPLQPYRYYYWGQGTQVTVSS | low polyreactivity |
| QVQLVESGGGLVQAGGSLRLSCAASGRTFDRYAMGWYRQAPGKERELVAVIRFIGGSTYYADSVKGRFTISRDNAKNTVYLQMISLKPEDTAVYFCAADATIDWVDYDYWGQGTQVTVSS | low polyreactivity |
| QVQLVESGGGLVQAGGSLRLSCAASGRTFDSYAMGWYRQAPGKERELVAAIYADSVKGRFTISRDNAKNTVYLQMNSLKPEDTAVYYCAARDPSRHARRAYDYWGQGTQVTVSS | low polyreactivity |
| QVQLVESGGGLVQAGGSLRLSCAASGRTFDSYTMGWYRQAPGKERELLADITFTGGSTYYADSVKGRFTISRDNAKNTVYLQMNSLKPEDTAVYYCAAESVAILGLVYPKGYGYWGQGTQVTVSS | low polyreactivity |
| QVQLVESGGGLVQAGGSLRLSCAASGRTFDVYAMGGYRQAPGKERELVATIYYRSARTYYADSVKGRFTISRDNAKNTVYLQMNSLTPEDTAVYYCAAYFETWHGFGYWGQGTQVTVSS | high polyreactivity |
| QVQLVESGGGLVQAGGSLRLSCAASGRTFDVYAMGWYRQAPGKERELVAAISSSGGSTYYADSVKGRFTISRDNAKNTVYLQMNSLKPEDTAVYYCAVYYYSVYQYQAMDYWGQGTQVTVSS | low polyreactivity |
| QVQLVESGGGLVQAGGSLRLSCAASGRTFDYYAMGWYRPAPGKERELVARISWNGGSTRYADSVKGRFTISRDNAKNTVYLQMNSLKPEDTAVYYCKKVPYYAGQHYDYWGRGTQVTVSS | high polyreactivity |
| QVQLVESGGGLVQAGGSLRLSCAASGRTFDYYSMGWYRQAPGKERELVAAIRGSGGSTYYADSVKGRFTISRDNAKNTVSLQMNSLKPEDTAVYYCATDPPYFRTPWEYDYWGQGTQVTVSS | low polyreactivity |
| QVQLVESGGGLVQAGGSLRLSCAASGRTFEGNAMGWYRQAPGKERELVAAISGSGGRTYYADSVKGRFTISRDHAKNTVYLPMNSLKPEHTAVYYATLYSVYNPWRFNYWGQGTQVTVSS | high polyreactivity |
| QVQLVESGGGLVQAGGSLRLSCAASGRTFEIYAMGWYRQEPGKERELVAAITSGGSTYYADSVKGRFTISRDNAKNTVYLQMNSLKPEDTAVYYCNAYLYYDAHGVDYWGQGTQVTVSS | high polyreactivity |
| QVQLVESGGGLVQAGGSLRLSCAASGRTFEPNDMGWYRQAPGKERELVAAISSSDGSTYYADSVKGRFTISRDNAKNTVYLQMNSLKPEDTALYYCAADAGYLYDWPYNYYYWGQGTQVTVSS | low polyreactivity |
| QVQLVESGGGLVQAGGSLRLSCAASGRTFEQNVMGWYRQAPGTERELVAAITTGGSTNYADSVKGRFTISRDNAKNTVYLQMNSLKPEDTAVYYCAADRYLGGDYDYWGQGTQVTVSS | low polyreactivity |
| QVQLVESGGGLVQAGGSLRLSCAASGRTFERYAMGWYRQAPGQERELVAGITGRGGRTYYADSVKGRFTISRDNAKNTVYLQRNSLKPEDTAVYYCNKDTWVIHNYRYDYWGQGTQVTVSS | low polyreactivity |
| QVQLVESGGGLVQAGGSLRLSCAASGRTFEYNAMGWYRQAPGKERELVATIRYSGTSTYADSVKGRFTISRDNAKNTVYFQMNSLKPEDTAVYYCAKQVRYYGYKYNYWGQGTQVTVSS | high polyreactivity |
| QVQLVESGGGLVQAGGSLRLSCAASGRTFEYNDMGWYRQSPGKERELVAAISWRGTSTYYADSVKGRFTISRDNAKNTVYLQMNSLKPEDTAVYYCAADYSYSFYYAYYWGQGTQVTVSS | high polyreactivity |
| QVQLVESGGGLVQAGGSLRLSCAASGRTFEYNGMGWYSQAPGKEWELVAAITRGGSTYYADSVKGRFTISRDNAKNTVYLQMNSLKPEDTAVYYCAAVVGWSRYKWLEYWGQGTQVTVSS | low polyreactivity |
| QVQLVESGGGLVQAGGSLRLSCAASGRTFFDYVMGWYRQAPGKERELVAAISTSGTSTYYADSVKGRFTISRDNAKNTVYLHMNSLKPEDTAVYYCAAGNYLYSYGYGYWGQGTQVTVSS | high polyreactivity |
| QVQLVESGGGLVQAGGSLRLSCAASGRTFFENAKGWYRQAPGKEREFVAAISYNGGSTYYADSVKGRFTISRDNAKNTVYLQMNSLKPEDTAVYYCAADPNYGYDYWGQGTQVTVSS | low polyreactivity |
| QVQLVESGGGLVQAGGSLRLSCAASGRTFFFNAMGWYRQAPGKERELVARITWSGGSTYYADSVKGRFTISRDNAKNTVYLQMNSLKPEDTAVYYCNTRRFPYDGIEHDYWGQGTQVTVSS | low polyreactivity |
| QVQLVESGGGLVQAGGSLRLSCAASGRTFFGNAKGWYRQAPGKERELVAAISWRGGSTYYADSVKGRFTISRDNAKKTVYLQMNSLKPEDTAVYYCATGRYGYGYWGQGTQVTVSS | high polyreactivity |
| QVQLVESGGGLVQAGGSLRLSCAASGRTFFGNAMGWYRQAPGKERELVAVISQGGGSTYYADSVKGRFTISRDNAKNTVYLQMNSLKPEDTAVYYCAKRYPHFGSGQLGGTYNYWGQGTQVTVSS | low polyreactivity |
| QVQLVESGGGLVQAGGSLRLSCAASGRTFFGYAMGWCRQARGKEREFVAAISGSGGSTYYADSVKGRFTISRDYAKNTVYFKMNSLKPEDTAVYYCNAEYWGEYYYFGQGTQVTVSS | low polyreactivity |

| Sequence | polyreactivity (PSR sort gate) |
| --- | --- |
| QVQLVESGGGLVQAGGSLRLSCAASGRTFFGYAMGWYRQAPGKERELVAAITTSGGSTYYADSVKGRFTISRDNAKNTVYLQMNSLKPEDTAVYYCAARAYYGYYYWGQGTQVTVSS | low polyreactivity |
| QVQLVESGGGLVQAGGSLRLSCAASGRTFFIYAMGWYRQAPGKERELVAAISNGGSTNYADSVKGRFTISRDYAKNTVYLQMISLKPEDTAVYYCAAQYIGNLRGVFHYEFDWGQGTQVTVSS | high polyreactivity |
| QVQLVESGGGLVQAGGSLRLSCAASGRTFFLYAMGWYRQAPGKERELVAAITDGGSITYYADSVKGRFTISRDNAKNTVYLQMNSLKPEDTAVYYCAAEYWHVYDGDYWGYDYWGQGTQVTVSS | high polyreactivity |
| QVQLVESGGGLVQAGGSLRLSCAASGRTFFPYAMGWYRQAPAKEREFVAAITKTDDSTYYADSVKGRFTISRDNAKNTVYLQMNSLKPEDTAVYYCNAGDTQIRFYYWGQGTQVTVSS | low polyreactivity |
| QVQLVESGGGLVQAGGSLRLSCAASGRTFFPYAMGWYRQAPGKEREFVAAITKTDDSTYYADSVKGRFTISRDTSKNTVYLQMNSLKPEDTAVYYCNAGDTQMRFYYGGQGTQVTVSS | low polyreactivity |
| QVQLVESGGGLVQAGGSLRLSCAASGRTFFPYAMGWYRQAPGKERELVAAISFRGGRTYYADSVKGRFTISRDNAKNTVYLQMNSLKPEDTAVYYCNKLGTRVYEMDYWGQGTQVTVSS | high polyreactivity |
| QVQLVESGGGLVQAGGSLRLSCAASGRTFFQYAMGWYRQPPGKARELVAAIRWSDSTYYADSVKGRFTISRDNAKNTVYLQMNSLKPADTAVYYCAAPRVSQYSTKKYDYWGQGTQVTVSS | low polyreactivity |
| QVQLVESGGGLVQAGGSLRLSCAASGRTFFRYAMGWYRQAPGKERELVAAISSRGGSTYYADSVKGRFTISRDNAKNTVYLQMNSLKPEDTAVYYCNAAAFINFILYDYWGQGTQVTVSS | high polyreactivity |
| QVQLVESGGGLVQAGGSLRLSCAASGRTFFRYAMGWYRQAPGKERELVADISKGGGSTYYADSVKGRFTISRDNAKNTVYLQMNSLKPEDTAVYYCAADQYYERDNFGAERYYWGQGTQVTVSS | high polyreactivity |
| QVQLVESGGGLVQAGGSLRLSCAASGRTFFSFNAMGWYRQAPGKERELVAAIDGDGGITYYADSVKGRFTISRDNAKNTVYLQMNSLKPEDTAVYYCAAETLFSYAGEDDYWGQGTQVTVSS | low polyreactivity |
| QVQLVESGGGLVQAGGSLRLSCAASGRTFFSYTMGWSRQAPGKERELVAAISDSDGRTYYADSVKGRFTISRDNAKNTVYLQMNSLKPEDTAVYYCAAVPDKDWSRVRRYLFEDIYWGQGTQVTVSS | low polyreactivity |
| QVQLVESGGGLVQAGGSLRLSCAASGRTFFTNAMGWYRQAPGKERELVASINSGGNTTYADSVKGRFTISRDNAKNTVYIQMNSLKPEDTAVYYCAAVRSAQRWRRYYYWGQGTQVTVSS | low polyreactivity |
| QVQLVESGGGLVQAGGSLRLSCAASGRTFFTNTMGWYRQAPGKERELVAAITRSGASTYYADSVKGRFTISRDNAKNTVYLQMNSLKPEDTAVYYCAAQRSKYSTVGKYGYWGQGTQVTVSS | high polyreactivity |
| QVQLVESGGGLVQAGGSLRLSCAASGRTFFTYAMGWYRQAPGKERELVASITSSGVSTYYADSVKGRFTISRDNAKNTVYLQINRLKPEDTAVYHCNTRYPYYWPIYGYWGQGTQVTVSS | high polyreactivity |
| QVQLVESGGGLVQAGGSLRLSCAASGRTFFWYVMGWYRKAPGKERELVATISYGGITYYADSVKGRFTISRDNAKNTVYLQMNSLKPEDTALYYCAAKPSRSLYYYWGQGTQVTVSS | high polyreactivity |
| QVQLVESGGGLVQAGGSLRLSCAASGRTFFYNAMGWYRQAPGKERELVAAISYSGGSTYYADSVKGRFTISRDNAKNTVYLQMNSLKPEDTAVYYCAAYHYARYRTSAGNYYWGQGTQVTVSS | high polyreactivity |
| QVQLVESGGGLVQAGGSLRLSCAASGRTFFYYAMGWYRQAPGKERELVAAISGRGGSTYYADSVKGRFTISRDNAKNTVYLQMNSLKPVDTAVYFCAAQSPFRRYTSPWYDYWGQGTQVTVSS | high polyreactivity |
| QVQLVESGGGLVQAGGSLRLSCAASGRTFGANAMGWYRQAPGKERELVATIRRGGSTYYADSVKGRFTISRDNAKNTVYLLMNSLKPEDTAVYYCATQYHSYAKEYDYWGQGTQVTVSS | low polyreactivity |
| QVQLVESGGGLVQAGGSLRLSCAASGRTFGAYTMGWYRQAPGKERELFAAINWSGGDTYYADSVKGRFTISRDNAKNTVYLQMNSLKPEDTAVYYCNADFGFGYVSLLYEYWGQGTQVTVSS | low polyreactivity |
| QVQLVESGGGLVQAGGSLRLSCAASGRTFGDYAMGWYRQAPGKERELVAAITIGGSTYYADSVKGRFTISRDNAKNTVYLQMNSLKPEDTAVYYCAATTYSIPSRYDSWGQGTQVTVSS | low polyreactivity |
| QVQLVESGGGLVQAGGSLRLSCAASGRTFGDYDMGWYRQAPGKERELVAAITSDGTTYYADSVKGRFTISRDNAKNTVYLQMNSLKPEDTAVYYCAADYWYVSWYDYWGQGTQVTVSS | low polyreactivity |
